Results on 125 sequences are retold here after the supplement of paper PMC9112550, “Optimization of the antimicrobial peptide Bac7 by deep mutational scanning” (BMC Biology, 2022).

The data set relates to Escherichia coli TOP10. The data set is described as follows: shrunken log2 fold change of peptide-encoding DNA abundance (4.5 h post-induction vs induction); higher = less antimicrobial activity (less host growth inhibition). To be noted: time post-induction: 4.5 h; library: site-saturation at positions 5, 18, 19, 20.
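Also: peptides expressed intracellularly from a pBAD plasmid library in pooled LB shake-flask culture, induced with 0.3% L-arabinose, DNA abundance read by NGS, three biological replicates, DESeq2 with apeglm shrinkage.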

Turning to RRIRKRPPRLPRPRPRPPERPRP, the “shrunken log2 fold change” value turned out to be 2.02.

Turning to RRIRWRPPRLPRPRPRPIWRPRP, the “shrunken log2 fold change” value came to 0.628.

RRIRERPPRLPRPRPRPGHDPRP: the “shrunken log2 fold change” value is -0.449.

With RRIRRRPPRLPRPRPRPAMGPRP, the “shrunken log2 fold change” value amounted to 0.142.

Take RRIRHRPPRLPRPRPRPHSDPRP: the “shrunken log2 fold change” value turned out to be 0.0468.

For the sequence RRIRERPPRLPRPRPRPFDLPRP, the “shrunken log2 fold change” value is -0.504.

For the sequence RRIRERPPRLPRPRPRPHNQPRP, the “shrunken log2 fold change” value is -0.325.

With RRIRMRPPRLPRPRPRPMRPPRP, the “shrunken log2 fold change” value worked out at 1.79.

Regarding RRIRNRPPRLPRPRPRPPLTPRP, the “shrunken log2 fold change” value was found to be 0.0501.

Take RRIRVRPPRLPRPRPRPTVHPRP: the “shrunken log2 fold change” value was -0.0675.

For RRIRHRPPRLPRPRPRPLWKPRP, the “shrunken log2 fold change” value is -0.102.

On to RRIRYRPPRLPRPRPRPFDIPRP, for which the “shrunken log2 fold change” value turned out to be 0.0167.

As for RRIRYRPPRLPRPRPRPMVLPRP, the “shrunken log2 fold change” value was -0.0934.

On to RRIRFRPPRLPRPRPRPRQRPRP, for which the “shrunken log2 fold change” value came out at 0.346.

In the case of RRIRGRPPRLPRPRPRPYSLPRP, the “shrunken log2 fold change” value was -0.158.

For RRIRGRPPRLPRPRPRPEDEPRP, the “shrunken log2 fold change” value came to 0.0631.

On to RRIRCRPPRLPRPRPRPWQCPRP, for which the “shrunken log2 fold change” value is -0.0231.

Regarding RRIRERPPRLPRPRPRPQTGPRP, the “shrunken log2 fold change” value was -0.0945.

For RRIRTRPPRLPRPRPRPIVSPRP, the “shrunken log2 fold change” value is -0.0631.

For RRIRMRPPRLPRPRPRPGSFPRP, the “shrunken log2 fold change” value stood at 1.04.

Take RRIRQRPPRLPRPRPRPFRRPRP: the “shrunken log2 fold change” value was found to be 0.0238.

As to RRIRARPPRLPRPRPRPTCYPRP, the “shrunken log2 fold change” value is 0.128.

With RRIRQRPPRLPRPRPRPRDAPRP, the “shrunken log2 fold change” value came to 0.494.

Consider RRIRPRPPRLPRPRPRPSPAPRP, for which the “shrunken log2 fold change” value stood at 0.209.

With RRIRQRPPRLPRPRPRPGTTPRP, the “shrunken log2 fold change” value was 0.155.

On to RRIRDRPPRLPRPRPRPNKQPRP, for which the “shrunken log2 fold change” value was -0.0169.

Turning to RRIRVRPPRLPRPRPRPTDIPRP, the “shrunken log2 fold change” value is -0.402.

RRIRLRPPRLPRPRPRPGPNPRP: the “shrunken log2 fold change” value was 0.0611.

As for RRIRHRPPRLPRPRPRPCTAPRP, the “shrunken log2 fold change” value was 0.0655.

Take RRIRERPPRLPRPRPRPYGRPRP: the “shrunken log2 fold change” value was -0.264.

For the sequence RRIRHRPPRLPRPRPRPCHSPRP, the “shrunken log2 fold change” value was -0.19.

Take RRIRRRPPRLPRPRPRPERQPRP: the “shrunken log2 fold change” value came to 0.522.

RRIRERPPRLPRPRPRPPQKPRP: the “shrunken log2 fold change” value was -0.0624.

As for RRIRSRPPRLPRPRPRPKCPPRP, the “shrunken log2 fold change” value was -0.118.

For the sequence RRIRNRPPRLPRPRPRPSQRPRP, the “shrunken log2 fold change” value is -0.0448.

For the sequence RRIRCRPPRLPRPRPRPDNTPRP, the “shrunken log2 fold change” value was determined as 0.881.

For RRIRSRPPRLPRPRPRPTWCPRP, the “shrunken log2 fold change” value worked out at 0.18.

For RRIRMRPPRLPRPRPRPGYPPRP, the “shrunken log2 fold change” value stood at 0.0749.

In the case of RRIRGRPPRLPRPRPRPHRLPRP, the “shrunken log2 fold change” value was 0.14.

Take RRIRCRPPRLPRPRPRPCTAPRP: the “shrunken log2 fold change” value is -0.361.

As for RRIRERPPRLPRPRPRPWLSPRP, the “shrunken log2 fold change” value stood at 0.0694.

For RRIRVRPPRLPRPRPRPKARPRP, the “shrunken log2 fold change” value was found to be 0.295.

For RRIRPRPPRLPRPRPRPNFRPRP, the “shrunken log2 fold change” value was determined as 0.156.

Regarding RRIRDRPPRLPRPRPRPKMAPRP, the “shrunken log2 fold change” value was found to be 0.38.

In the case of RRIRCRPPRLPRPRPRPPFTPRP, the “shrunken log2 fold change” value is -0.15.

RRIRFRPPRLPRPRPRPGCEPRP: the “shrunken log2 fold change” value came out at 0.187.

With RRIRARPPRLPRPRPRPNFCPRP, the “shrunken log2 fold change” value came out at 0.24.

Turning to RRIRPRPPRLPRPRPRPIMMPRP, the “shrunken log2 fold change” value was -0.199.

For the sequence RRIRHRPPRLPRPRPRPGSRPRP, the “shrunken log2 fold change” value is -0.168.

On to RRIRYRPPRLPRPRPRPKLLPRP, for which the “shrunken log2 fold change” value is -0.296.

Take RRIRLRPPRLPRPRPRPRVCPRP: the “shrunken log2 fold change” value came to 0.0558.

As to RRIRQRPPRLPRPRPRPAVNPRP, the “shrunken log2 fold change” value is -0.0181.

As to RRIRIRPPRLPRPRPRPQAQPRP, the “shrunken log2 fold change” value is -0.108.

As to RRIRQRPPRLPRPRPRPDNQPRP, the “shrunken log2 fold change” value was -0.037.

Take RRIRCRPPRLPRPRPRPARPPRP: the “shrunken log2 fold change” value was 0.52.

With RRIRYRPPRLPRPRPRPRLGPRP, the “shrunken log2 fold change” value amounted to 0.0954.

In the case of RRIRNRPPRLPRPRPRPYRSPRP, the “shrunken log2 fold change” value is -0.0179.

For the sequence RRIRPRPPRLPRPRPRPEGDPRP, the “shrunken log2 fold change” value amounted to 0.39.

Turning to RRIRCRPPRLPRPRPRPCRTPRP, the “shrunken log2 fold change” value was -0.168.

With RRIRDRPPRLPRPRPRPAEEPRP, the “shrunken log2 fold change” value was 0.168.

Consider RRIRKRPPRLPRPRPRPCLHPRP, for which the “shrunken log2 fold change” value was -0.0515.

Consider RRIRERPPRLPRPRPRPKPCPRP, for which the “shrunken log2 fold change” value worked out at 0.133.

Turning to RRIRKRPPRLPRPRPRPQMFPRP, the “shrunken log2 fold change” value is -0.00577.

As to RRIRSRPPRLPRPRPRPRPHPRP, the “shrunken log2 fold change” value turned out to be 0.151.

Regarding RRIRYRPPRLPRPRPRPDGCPRP, the “shrunken log2 fold change” value is -0.029.

As for RRIRMRPPRLPRPRPRPHWTPRP, the “shrunken log2 fold change” value is -0.106.

Regarding RRIRYRPPRLPRPRPRPMHVPRP, the “shrunken log2 fold change” value came to 0.214.

As to RRIRIRPPRLPRPRPRPNVGPRP, the “shrunken log2 fold change” value turned out to be 0.011.

As for RRIRHRPPRLPRPRPRPQCKPRP, the “shrunken log2 fold change” value is -0.161.

As for RRIRSRPPRLPRPRPRPFWRPRP, the “shrunken log2 fold change” value was 0.0559.

For RRIRSRPPRLPRPRPRPNDWPRP, the “shrunken log2 fold change” value turned out to be 0.179.

For RRIRIRPPRLPRPRPRPYWFPRP, the “shrunken log2 fold change” value was -0.112.

RRIRVRPPRLPRPRPRPYLLPRP: the “shrunken log2 fold change” value is -0.357.

Take RRIRCRPPRLPRPRPRPVCWPRP: the “shrunken log2 fold change” value was 0.401.

In the case of RRIRSRPPRLPRPRPRPNDFPRP, the “shrunken log2 fold change” value is -0.19.

Regarding RRIRHRPPRLPRPRPRPGHSPRP, the “shrunken log2 fold change” value was -0.27.

RRIRVRPPRLPRPRPRPGFFPRP: the “shrunken log2 fold change” value was 0.0758.

Turning to RRIRRRPPRLPRPRPRPGPNPRP, the “shrunken log2 fold change” value was 0.251.

Regarding RRIRYRPPRLPRPRPRPYYCPRP, the “shrunken log2 fold change” value worked out at 0.00489.

Take RRIRKRPPRLPRPRPRPRRCPRP: the “shrunken log2 fold change” value turned out to be 0.444.

Turning to RRIRDRPPRLPRPRPRPLMNPRP, the “shrunken log2 fold change” value came out at 0.0268.

As to RRIRPRPPRLPRPRPRPWMNPRP, the “shrunken log2 fold change” value is -0.0141.

For the sequence RRIRVRPPRLPRPRPRPSPFPRP, the “shrunken log2 fold change” value was -0.442.

Take RRIRNRPPRLPRPRPRPSTPPRP: the “shrunken log2 fold change” value was -0.103.

With RRIRFRPPRLPRPRPRPGKVPRP, the “shrunken log2 fold change” value was -0.216.

Turning to RRIRQRPPRLPRPRPRPFQPPRP, the “shrunken log2 fold change” value was determined as 0.0592.

Take RRIRRRPPRLPRPRPRPMWAPRP: the “shrunken log2 fold change” value amounted to 0.161.

For RRIRQRPPRLPRPRPRPFIAPRP, the “shrunken log2 fold change” value was -0.277.

With RRIRWRPPRLPRPRPRPDRNPRP, the “shrunken log2 fold change” value came out at 0.0394.

Consider RRIRYRPPRLPRPRPRPYPFPRP, for which the “shrunken log2 fold change” value is -0.0218.

Regarding RRIRWRPPRLPRPRPRPWCYPRP, the “shrunken log2 fold change” value is -0.475.

In the case of RRIRRRPPRLPRPRPRPAYVPRP, the “shrunken log2 fold change” value amounted to 0.0253.

With RRIRCRPPRLPRPRPRPHSFPRP, the “shrunken log2 fold change” value was -0.404.

On to RRIRRRPPRLPRPRPRPRGWPRP, for which the “shrunken log2 fold change” value amounted to 0.979.

In the case of RRIRLRPPRLPRPRPRPNMVPRP, the “shrunken log2 fold change” value was -0.126.

Take RRIRDRPPRLPRPRPRPLCQPRP: the “shrunken log2 fold change” value amounted to 0.0964.

Consider RRIRNRPPRLPRPRPRPKAFPRP, for which the “shrunken log2 fold change” value was -0.0608.

RRIRPRPPRLPRPRPRPSNYPRP: the “shrunken log2 fold change” value is -0.733.

In the case of RRIRMRPPRLPRPRPRPFDYPRP, the “shrunken log2 fold change” value was -0.16.

Turning to RRIRIRPPRLPRPRPRPTVVPRP, the “shrunken log2 fold change” value is -0.0277.

As to RRIRFRPPRLPRPRPRPCWQPRP, the “shrunken log2 fold change” value amounted to 3.76.

For RRIRCRPPRLPRPRPRPDVEPRP, the “shrunken log2 fold change” value was -0.421.

With RRIRPRPPRLPRPRPRPAPFPRP, the “shrunken log2 fold change” value was determined as 0.143.

For RRIRLRPPRLPRPRPRPDCQPRP, the “shrunken log2 fold change” value came to 0.153.

For RRIRDRPPRLPRPRPRPAQGPRP, the “shrunken log2 fold change” value is 0.00228.

For the sequence RRIRRRPPRLPRPRPRPGEYPRP, the “shrunken log2 fold change” value amounted to 0.264.

As for RRIRARPPRLPRPRPRPTFMPRP, the “shrunken log2 fold change” value amounted to 0.106.

With RRIRIRPPRLPRPRPRPCPQPRP, the “shrunken log2 fold change” value is -0.458.

RRIRRRPPRLPRPRPRPDLSPRP: the “shrunken log2 fold change” value is -0.0391.

On to RRIRRRPPRLPRPRPRPRRYPRP, for which the “shrunken log2 fold change” value amounted to 0.0835.

For the sequence RRIRERPPRLPRPRPRPFVMPRP, the “shrunken log2 fold change” value is -0.345.

As to RRIRFRPPRLPRPRPRPANDPRP, the “shrunken log2 fold change” value was found to be 0.0325.

On to RRIRVRPPRLPRPRPRPHNWPRP, for which the “shrunken log2 fold change” value is -0.0818.

For the sequence RRIRTRPPRLPRPRPRPVDNPRP, the “shrunken log2 fold change” value is -0.0554.

Regarding RRIRSRPPRLPRPRPRPIHCPRP, the “shrunken log2 fold change” value is -0.452.

On to RRIRFRPPRLPRPRPRPYCYPRP, for which the “shrunken log2 fold change” value is -0.749.

For the sequence RRIRPRPPRLPRPRPRPTGAPRP, the “shrunken log2 fold change” value amounted to 0.55.

As for RRIRFRPPRLPRPRPRPKDIPRP, the “shrunken log2 fold change” value is -0.676.

Turning to RRIRWRPPRLPRPRPRPWDHPRP, the “shrunken log2 fold change” value was -0.0185.

In the case of RRIRSRPPRLPRPRPRPQRQPRP, the “shrunken log2 fold change” value is 0.116.

Consider RRIRMRPPRLPRPRPRPGKMPRP, for which the “shrunken log2 fold change” value worked out at 0.137.

In the case of RRIRWRPPRLPRPRPRPQMEPRP, the “shrunken log2 fold change” value came out at 0.0344.

As for RRIRCRPPRLPRPRPRPTTTPRP, the “shrunken log2 fold change” value was -0.0127.

Take RRIRFRPPRLPRPRPRPYMLPRP: the “shrunken log2 fold change” value is -0.61.

As to RRIRERPPRLPRPRPRPPKQPRP, the “shrunken log2 fold change” value was 0.0175.
